The values below come from article PMC9317006, “A Fiber-Based SPR Aptasensor for the In Vitro Detection of Inflammation Biomarkers”.

One data set has as its system fibrinogen. The experiment in a line: fiber-based SPR. To be noted: 100 nM protein; 3' thiol; Detection buffer: 25 mM Tris base, 192 mM glycine, 0.05% Tween 20, 0.1% BSA, 2 mM CaCl2, 100 mM NaCl, pH 8.0; binding temperature not stated (RI calibration at …).
In the next data set the test system is hemoglobin. The experiment in a line: fiber-based SPR. To be noted: 100 nM protein; 3' thiol; Detection buffer: 25 mM Tris base, 192 mM glycine, 0.05% Tween 20, 0.1% BSA, 2 mM CaCl2, 100 mM NaCl, pH 8.0; binding temperature not stated (RI calibration at …).
In data set [1] the target is cardiac troponin I (cTn-I) (human, UniProt P19429 1-210). The experiment in a line: fiber-based SPR; LOD 2.5 nM (not a Kd); aptamer loaded at 200 nM; Detection buffer: 25 mM Tris base, 192 mM glycine, 0.05% Tween 20, 0.1% BSA, 2 mM CaCl2, 100 mM NaCl, pH 8.0; binding temperature not stated (RI calibration at). Particulars: protein: recombinant.
cardiac troponin I (cTn-I), sequence (P19429 whole entry): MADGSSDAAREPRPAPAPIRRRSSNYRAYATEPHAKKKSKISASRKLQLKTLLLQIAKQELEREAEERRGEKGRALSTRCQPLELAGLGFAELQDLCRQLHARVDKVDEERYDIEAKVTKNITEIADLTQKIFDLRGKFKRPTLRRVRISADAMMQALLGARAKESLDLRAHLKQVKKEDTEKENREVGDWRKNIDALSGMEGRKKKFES
For a further data set, the target named is T1, C-reactive protein (CRP) (human, UniProt P02741 19-224).
T1 sequence: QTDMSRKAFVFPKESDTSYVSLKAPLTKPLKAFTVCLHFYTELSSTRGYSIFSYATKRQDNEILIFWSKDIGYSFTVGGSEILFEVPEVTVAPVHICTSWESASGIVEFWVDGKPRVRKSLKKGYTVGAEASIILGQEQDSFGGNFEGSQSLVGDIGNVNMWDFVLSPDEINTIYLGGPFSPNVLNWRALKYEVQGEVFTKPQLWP
The experiment in a line: fiber-based SPR; LOD 1.7 nM (not a Kd); aptamer loaded at 100 nM; Detection buffer: 25 mM Tris base, 192 mM glycine, 0.05% Tween 20, 0.1% BSA, 2 mM CaCl2, 100 mM NaCl, pH 8.0; binding temperature not stated (RI calibration at). To be noted: protein: recombinant; chain copies: 5.

Regarding “CGAAGGGGATTCGAGGGGTGATTGCGTGCTCCATTTGGTGTTTTT [cTn-I aptamer]”, the binding signal (% of specific response) in the data set on fibrinogen and with hemoglobin was less than 20 each time.
“GGCAGGAAGACAAACACGATGGGGGGGTATGATTTGATGTGGTTGTGCATGATCGTGGTCTGTGGTGCTGTTTTT [CRP aptamer]”: the binding signal (% of specific response) in the data set with fibrinogen and in the data set on hemoglobin was less than 20 each time.

B1: cTn-I aptamer (ssDNA)
DNA: CGAAGGGGATTCGAGGGGTGATTGCGTGCTCCATTTGGTGTTTTT
modifications: 3' thiol
As for B1, in data set [1], the binding result was “binds”.

B2: CRP aptamer (ssDNA)
DNA: GGCAGGAAGACAAACACGATGGGGGGGTATGATTTGATGTGGTTGTGCATGATCGTGGTCTGTGGTGCTGTTTTT
modifications: 3' thiol
As to B2, the binding result with C-reactive protein (CRP) is on record as “binds”.
